Test results published in article PMC5535893.

Assays:
[1] = target: mouse CD3εγ-chains (mouse (endogenous in C57BL/6 spleen T cells)) (UniProt P22646)
[2] = target: mouse CD3εγ-chains (mouse (endogenous in C57BL/6 spleen T cells)) (UniProt P22646); assay: flow cytometry on cells; fixed CD8+ T cells (1 x 10^6/mL) incubated with or without ArtinM (25 µg/mL) for 40 min at 4 °C, then with 145-2C11-PE or 17A2-FITC (10 µg/mL) for 40 min at 4 °C; percentage of cells labelled with anti-CD3 antibody

UniProt P22646, sequence (P22646 22-189, chain 1 of 2): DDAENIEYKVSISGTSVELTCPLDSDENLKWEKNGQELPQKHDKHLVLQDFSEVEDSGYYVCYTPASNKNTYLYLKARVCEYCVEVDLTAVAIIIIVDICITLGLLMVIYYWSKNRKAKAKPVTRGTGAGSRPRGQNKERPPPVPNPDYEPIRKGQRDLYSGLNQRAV
UniProt P22646, sequence (P11942 23-182, chain 2 of 2, further chain): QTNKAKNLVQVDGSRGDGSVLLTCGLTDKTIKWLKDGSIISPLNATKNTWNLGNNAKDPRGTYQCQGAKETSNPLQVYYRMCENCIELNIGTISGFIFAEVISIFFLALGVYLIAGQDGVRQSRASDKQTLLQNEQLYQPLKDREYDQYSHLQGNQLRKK

inhibition of the ArtinM-induced (1.25 µg/mL, 48 h) IL-2 release by CD8+ T cells after treatment with the anti-CD3εγ-chains antibody 17A2 (8 µg/mL), against an IgG isotype control; ELISA [1]: 70% | fold decrease in the frequency of CD8+ T cells labelled by the anti-CD3εγ antibody 17A2 after pre-incubation with ArtinM [2]: 3.5 fold
Substance: ArtinM, D-mannose-binding lectin from Artocarpus heterophyllus (natural protein)
